Results taken from paper PMC11014985, “TCTP regulates genotoxic stress and tumorigenicity via intercellular vesicular signaling”.

What was measured:
TCTP [1] = molecular target: T1, TCTP (UniProt P13693 1-172); test: EMSA; 500 nM TCTP, 50 nM RNA; ATP or AMP-PNP; EMSA: RNA01 at pH 7.5, 6% native PAGE at 4 C; let-7c-5p 50 nM, proteins preincubated 20 min then 25 min on ice, ATP or AMP-PNP (5 mM), NativePAGE 3-12% Bis-Tris; conditions: protein: recombinant; single strand
T1 sequence: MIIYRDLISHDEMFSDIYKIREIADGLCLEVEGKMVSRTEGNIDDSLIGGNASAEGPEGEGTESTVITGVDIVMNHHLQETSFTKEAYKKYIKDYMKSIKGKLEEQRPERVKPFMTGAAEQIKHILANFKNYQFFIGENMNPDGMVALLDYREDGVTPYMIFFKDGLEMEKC

DDX3-WT = DDX3-WT (human, UniProt O00571 1-662); test: EMSA; 300 nM DDX3, 50 nM RNA; ATP or AMP-PNP (nucleotide not specified for outcome); EMSA: RNA01 at pH 7.5, 6% native PAGE at 4 C; let-7c-5p 50 nM, proteins preincubated 20 min then 25 min on ice, ATP or AMP-PNP (5 mM), NativePAGE 3-12% Bis-Tris; conditions: protein: recombinant; single strand
TCTP [2] = molecular target: T1, TCTP; test: EMSA; 50 nM RNA, increasing TCTP; pH 7.5; EMSA: RNA01 at pH 7.5, 6% native PAGE at 4 C; let-7c-5p 50 nM, proteins preincubated 20 min then 25 min on ice, ATP or AMP-PNP (5 mM), NativePAGE 3-12% Bis-Tris; conditions: protein: recombinant; label: 5'-Cy5; single strand
Ded1 (DEAD-box helicase) = Ded1 (DEAD-box helicase) (yeast, UniProt P06634 1-604); test: EMSA; 50 nM RNA; positive control; AMP-PNP; EMSA: RNA01 at pH 7.5, 6% native PAGE at 4 C; let-7c-5p 50 nM, proteins preincubated 20 min then 25 min on ice, ATP or AMP-PNP (5 mM), NativePAGE 3-12% Bis-Tris; conditions: protein: recombinant; label: 5'-Cy5; single strand
Sequence of Ded1 (DEAD-box helicase) (P06634 whole entry): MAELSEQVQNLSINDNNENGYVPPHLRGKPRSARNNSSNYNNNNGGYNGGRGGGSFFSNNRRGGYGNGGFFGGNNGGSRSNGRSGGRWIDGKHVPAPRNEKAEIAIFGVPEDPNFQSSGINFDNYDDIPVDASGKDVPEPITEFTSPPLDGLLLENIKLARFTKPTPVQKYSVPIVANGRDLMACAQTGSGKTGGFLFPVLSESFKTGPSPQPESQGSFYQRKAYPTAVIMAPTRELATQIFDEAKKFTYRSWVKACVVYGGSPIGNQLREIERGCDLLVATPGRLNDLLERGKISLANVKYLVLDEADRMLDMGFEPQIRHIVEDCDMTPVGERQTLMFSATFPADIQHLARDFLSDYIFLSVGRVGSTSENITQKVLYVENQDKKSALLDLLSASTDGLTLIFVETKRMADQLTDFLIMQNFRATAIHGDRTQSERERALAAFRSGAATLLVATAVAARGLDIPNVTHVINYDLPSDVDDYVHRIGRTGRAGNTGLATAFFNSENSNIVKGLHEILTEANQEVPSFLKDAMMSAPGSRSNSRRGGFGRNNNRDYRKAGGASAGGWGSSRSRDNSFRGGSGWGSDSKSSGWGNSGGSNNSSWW

Sequence of DDX3-WT (O00571 whole entry): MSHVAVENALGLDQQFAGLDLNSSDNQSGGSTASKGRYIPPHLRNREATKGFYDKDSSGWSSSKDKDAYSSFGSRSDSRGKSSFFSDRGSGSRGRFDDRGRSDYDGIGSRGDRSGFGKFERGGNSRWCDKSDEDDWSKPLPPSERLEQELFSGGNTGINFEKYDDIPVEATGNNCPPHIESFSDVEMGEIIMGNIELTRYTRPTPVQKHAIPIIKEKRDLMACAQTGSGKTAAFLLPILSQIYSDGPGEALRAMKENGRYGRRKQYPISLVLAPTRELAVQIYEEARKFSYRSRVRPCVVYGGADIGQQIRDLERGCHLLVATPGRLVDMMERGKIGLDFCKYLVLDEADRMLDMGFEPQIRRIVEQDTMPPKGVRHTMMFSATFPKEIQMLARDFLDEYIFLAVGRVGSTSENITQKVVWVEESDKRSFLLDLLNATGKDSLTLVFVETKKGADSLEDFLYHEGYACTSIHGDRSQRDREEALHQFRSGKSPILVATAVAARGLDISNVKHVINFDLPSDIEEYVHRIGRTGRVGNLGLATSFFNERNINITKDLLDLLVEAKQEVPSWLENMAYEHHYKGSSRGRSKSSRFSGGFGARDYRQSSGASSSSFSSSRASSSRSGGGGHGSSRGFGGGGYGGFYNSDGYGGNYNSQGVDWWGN

UGAGGUAGUAGGUUGUAUGGUU (ssRNA) [let-7c-5p]
binding result (TCTP [1]): no binding
binding result (DDX3-WT): binds

UCAUACUUUUCUUUUCUUUUCCAUC (ssRNA) [RNA01]
binding result (TCTP [2]): no binding
binding result (Ded1 (DEAD-box helicase)): binds
